{"source": "paper PMC12416549", "about": "(2024)", "binders": {"B1": {"name": "E83H (designed binder)", "chain": "SMEEEVEKAAKEYEKKKKEAIEKHLEKLKAKDKEAAERFLKELEEAAKEYAKDEAKTMSEEEAKRRAKKYKEKVLLSELSEEHQKEIKEAEEKLVRTILKYVEEAAK"}, "B2": {"name": "E19R (designed binder)", "chain": "B1 chain with E19R, H83E"}, "B3": {"name": "E22I (designed binder)", "chain": "B1 chain with E22I, H83E"}, "B4": {"name": "R66T (designed binder)", "chain": "B1 chain with R66T, H83E"}, "B5": {"name": "V6Y (designed binder)", "chain": "B1 chain with V6Y, H83E"}, "B6": {"name": "A30W (designed binder)", "chain": "B1 chain with A30W, H83E"}, "B7": {"name": "E89R (designed binder)", "chain": "B1 chain with H83E, E89R"}, "B8": {"name": "Y50S (designed binder)", "chain": "B1 chain with Y50S, H83E"}, "B9": {"name": "Q84N (designed binder)", "chain": "B1 chain with H83E, Q84N"}, "B10": {"name": "E78M (designed binder)", "chain": "B1 chain with E78M, H83E"}, "B11": {"name": "Y50M (designed binder)", "chain": "B1 chain with Y50M, H83E"}, "B12": {"name": "A105M (designed binder)", "chain": "B1 chain with H83E, A105M"}, "B13": {"name": "R38F (designed binder)", "chain": "B1 chain with R38F, H83E"}, "B14": {"name": "S77C (designed binder)", "chain": "B1 chain with S77C, H83E"}, "B15": {"name": "L28P (designed binder)", "chain": "B1 chain with L28P, H83E"}, "B16": {"name": "K107E (designed binder)", "chain": "B1 chain with H83E, K107E"}, "B17": {"name": "L43N (designed binder)", "chain": "B1 chain with L43N, H83E"}, "B18": {"name": "A30I (designed binder)", "chain": "B1 chain with A30I, H83E"}, "B19": {"name": "K16M (designed binder)", "chain": "B1 chain with K16M, H83E"}, "B20": {"name": "S1C (designed binder)", "chain": "B1 chain with S1C, H83E"}, "B21": {"name": "A67M (designed binder)", "chain": "B1 chain with A67M, H83E"}, "B22": {"name": "E3N (designed binder)", "chain": "B1 chain with E3N, H83E"}, "B23": {"name": "S59R (designed binder)", "chain": "B1 chain with S59R, H83E"}, "B24": {"name": "I87G (designed binder)", "chain": "B1 chain with H83E, I87G"}, "B25": {"name": "E54C (designed binder)", "chain": "B1 chain with E54C, H83E"}, "B26": {"name": "E12C (designed binder)", "chain": "B1 chain with E12C, H83E"}, "B27": {"name": "V95I (designed binder)", "chain": "B1 chain with H83E, V95I"}, "B28": {"name": "L25F (designed binder)", "chain": "B1 chain with L25F, H83E"}, "B29": {"name": "K100W (designed binder)", "chain": "B1 chain with H83E, K100W"}, "B30": {"name": "S80T (designed binder)", "chain": "B1 chain with S80T, H83E"}, "B31": {"name": "K18S (designed binder)", "chain": "B1 chain with K18S, H83E"}, "B32": {"name": "R66H (designed binder)", "chain": "B1 chain with R66H, H83E"}, "B33": {"name": "A10S (designed binder)", "chain": "B1 chain with A10S, H83E"}, "B34": {"name": "A55D (designed binder)", "chain": "B1 chain with A55D, H83E"}, "B35": {"name": "A55L (designed binder)", "chain": "B1 chain with A55L, H83E"}, "B36": {"name": "D53P (designed binder)", "chain": "B1 chain with D53P, H83E"}, "B37": {"name": "D32M (designed binder)", "chain": "B1 chain with D32M, H83E"}, "B38": {"name": "K107A (designed binder)", "chain": "B1 chain with H83E, K107A"}, "B39": {"name": "E78Q (designed binder)", "chain": "B1 chain with E78Q, H83E"}, "B40": {"name": "E92T (designed binder)", "chain": "B1 chain with H83E, E92T"}, "B41": {"name": "L79K (designed binder)", "chain": "B1 chain with L79K, H83E"}, "B42": {"name": "A9Y (designed binder)", "chain": "B1 chain with A9Y, H83E"}, "B43": {"name": "S1Y (designed binder)", "chain": "B1 chain with S1Y, H83E"}, "B44": {"name": "K23Y (designed binder)", "chain": "B1 chain with K23Y, H83E"}, "B45": {"name": "R38W (designed binder)", "chain": "B1 chain with R38W, H83E"}, "B46": {"name": "K68F (designed binder)", "chain": "B1 chain with K68F, H83E"}, "B47": {"name": "E49D (designed binder)", "chain": "B1 chain with E49D, H83E"}, "B48": {"name": "A63K (designed binder)", "chain": "B1 chain with A63K, H83E"}, "B49": {"name": "E91K (designed binder)", "chain": "B1 chain with H83E, E91K"}, "B50": {"name": "E12M (designed binder)", "chain": "B1 chain with E12M, H83E"}, "B51": {"name": "R96M (designed binder)", "chain": "B1 chain with H83E, R96M"}, "B52": {"name": "L94R (designed binder)", "chain": "B1 chain with H83E, L94R"}, "B53": {"name": "S59D (designed binder)", "chain": "B1 chain with S59D, H83E"}, "B54": {"name": "E42L (designed binder)", "chain": "B1 chain with E42L, H83E"}, "B55": {"name": "L79Y (designed binder)", "chain": "B1 chain with L79Y, H83E"}}, "molecular_target": "T1, TNFR1 (Homo sapiens, UniProt P19438)", "T1 chain": "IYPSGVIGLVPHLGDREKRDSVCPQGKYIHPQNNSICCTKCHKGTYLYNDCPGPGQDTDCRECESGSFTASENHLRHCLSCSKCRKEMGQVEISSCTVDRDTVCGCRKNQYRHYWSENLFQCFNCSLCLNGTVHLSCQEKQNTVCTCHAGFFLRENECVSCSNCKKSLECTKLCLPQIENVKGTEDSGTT", "assay": "yeast display SC50", "note": "Where a chain is given by its changes, count along the chain named. Numbers in names are those of the source.", "data": [{"binder": "B1", "values": [{"measurement": "apparent Kd (screen)", "value": 1.27, "unit": "nM"}]}, {"binder": "B2", "values": [{"measurement": "apparent Kd (screen)", "value": 0.446, "unit": "nM"}]}, {"binder": "B3", "values": [{"measurement": "apparent Kd (screen)", "value": 1.16, "unit": "nM"}]}, {"binder": "B4", "values": [{"measurement": "apparent Kd (screen)", "value": 16.7, "unit": "nM"}]}, {"binder": "B5", "values": [{"measurement": "apparent Kd (screen)", "value": 0.446, "unit": "nM"}]}, {"binder": "B6", "values": [{"measurement": "apparent Kd (screen)", "value": 0.593, "unit": "nM"}]}, {"binder": "B7", "values": [{"measurement": "apparent Kd (screen)", "value": 2.73, "unit": "nM"}]}, {"binder": "B8", "values": [{"measurement": "apparent Kd (screen)", "value": 5.31, "unit": "nM"}]}, {"binder": "B9", "values": [{"measurement": "apparent Kd (screen)", "value": 2.48, "unit": "nM"}]}, {"binder": "B10", "values": [{"measurement": "apparent Kd (screen)", "value": 0.956, "unit": "nM"}]}, {"binder": "B11", "values": [{"measurement": "apparent Kd (screen)", "value": 0.446, "unit": "nM"}]}, {"binder": "B12", "values": [{"measurement": "apparent Kd (screen)", "value": 3, "unit": "nM"}]}, {"binder": "B13", "values": [{"measurement": "apparent Kd (screen)", "value": 1.05, "unit": "nM"}]}, {"binder": "B14", "values": [{"measurement": "apparent Kd (screen)", "value": 1.54, "unit": "nM"}]}, {"binder": "B15", "values": [{"measurement": "apparent Kd (screen)", "value": 13.8, "unit": "nM"}]}, {"binder": "B16", "values": [{"measurement": "apparent Kd (screen)", "value": 1.54, "unit": "nM"}]}, {"binder": "B17", "values": [{"measurement": "apparent Kd (screen)", "value": 0.446, "unit": "nM"}]}, {"binder": "B18", "values": [{"measurement": "apparent Kd (screen)", "value": 0.653, "unit": "nM"}]}, {"binder": "B19", "values": [{"measurement": "apparent Kd (screen)", "value": 0.446, "unit": "nM"}]}, {"binder": "B20", "values": [{"measurement": "apparent Kd (screen)", "value": 15.2, "unit": "nM"}]}, {"binder": "B21", "values": [{"measurement": "apparent Kd (screen)", "value": 7.78, "unit": "nM"}]}, {"binder": "B22", "values": [{"measurement": "apparent Kd (screen)", "value": 2.73, "unit": "nM"}]}, {"binder": "B23", "values": [{"measurement": "apparent Kd (screen)", "value": 1.05, "unit": "nM"}]}, {"binder": "B24", "values": [{"measurement": "apparent Kd (screen)", "value": 13.8, "unit": "nM"}]}, {"binder": "B25", "values": [{"measurement": "apparent Kd (screen)", "value": 11.4, "unit": "nM"}]}, {"binder": "B26", "values": [{"measurement": "apparent Kd (screen)", "value": 0.956, "unit": "nM"}]}, {"binder": "B27", "values": [{"measurement": "apparent Kd (screen)", "value": 1.69, "unit": "nM"}]}, {"binder": "B28", "values": [{"measurement": "apparent Kd (screen)", "value": 0.49, "unit": "nM"}]}, {"binder": "B29", "values": [{"measurement": "apparent Kd (screen)", "value": 1.05, "unit": "nM"}]}, {"binder": "B30", "values": [{"measurement": "apparent Kd (screen)", "value": 1.27, "unit": "nM"}]}, {"binder": "B31", "values": [{"measurement": "apparent Kd (screen)", "value": 0.446, "unit": "nM"}]}, {"binder": "B32", "values": [{"measurement": "apparent Kd (screen)", "value": 24.4, "unit": "nM"}]}, {"binder": "B33", "values": [{"measurement": "apparent Kd (screen)", "value": 0.446, "unit": "nM"}]}, {"binder": "B34", "values": [{"measurement": "apparent Kd (screen)", "value": 12.5, "unit": "nM"}]}, {"binder": "B35", "values": [{"measurement": "apparent Kd (screen)", "value": 0.593, "unit": "nM"}]}, {"binder": "B36", "values": [{"measurement": "apparent Kd (screen)", "value": 0.869, "unit": "nM"}]}, {"binder": "B37", "values": [{"measurement": "apparent Kd (screen)", "value": 5.84, "unit": "nM"}]}, {"binder": "B38", "values": [{"measurement": "apparent Kd (screen)", "value": 1.54, "unit": "nM"}]}, {"binder": "B39", "values": [{"measurement": "apparent Kd (screen)", "value": 0.718, "unit": "nM"}]}, {"binder": "B40", "values": [{"measurement": "apparent Kd (screen)", "value": 3.3, "unit": "nM"}]}, {"binder": "B41", "values": [{"measurement": "apparent Kd (screen)", "value": 0.304, "unit": "nM"}]}, {"binder": "B42", "values": [{"measurement": "apparent Kd (screen)", "value": 0.718, "unit": "nM"}]}, {"binder": "B43", "values": [{"measurement": "apparent Kd (screen)", "value": 3, "unit": "nM"}]}, {"binder": "B44", "values": [{"measurement": "apparent Kd (screen)", "value": 0.368, "unit": "nM"}]}, {"binder": "B45", "values": [{"measurement": "apparent Kd (screen)", "value": 0.446, "unit": "nM"}]}, {"binder": "B46", "values": [{"measurement": "apparent Kd (screen)", "value": 3, "unit": "nM"}]}, {"binder": "B47", "values": [{"measurement": "apparent Kd (screen)", "value": 4.39, "unit": "nM"}]}, {"binder": "B48", "values": [{"measurement": "apparent Kd (screen)", "value": 8.56, "unit": "nM"}]}, {"binder": "B49", "values": [{"measurement": "apparent Kd (screen)", "value": 11.4, "unit": "nM"}]}, {"binder": "B50", "values": [{"measurement": "apparent Kd (screen)", "value": 0.539, "unit": "nM"}]}, {"binder": "B51", "values": [{"measurement": "apparent Kd (screen)", "value": 1.05, "unit": "nM"}]}, {"binder": "B52", "values": [{"measurement": "apparent Kd (screen)", "value": 4.83, "unit": "nM"}]}, {"binder": "B53", "values": [{"measurement": "apparent Kd (screen)", "value": 2.25, "unit": "nM"}]}, {"binder": "B54", "values": [{"measurement": "apparent Kd (screen)", "value": 7.07, "unit": "nM"}]}, {"binder": "B55", "values": [{"measurement": "apparent Kd (screen)", "value": 12.5, "unit": "nM"}]}]}
